According to article PMC8153730 (Science Advances, 2021):
Each block holds one binder with its values, some of them ahead of it.

What was measured:
[1] = molecular target: recombinant His BRD4 (1-477aa) (UniProt O60885 1-477); assay: ELISA
[2] = molecular target: His-Sumo BRD4 (1-477aa) wild type, not methylated (UniProt O60885 1-477); assay: ELISA

binding result [1]: binds
B1: recombinant glutathione S-transferase (GST) SETD6 (enzyme)
chain: MATQAKRPRVAGPVDGGDLDPVACFLSWCRRVGLELSPKVSERAGGRRTRGGARAALTSPPAQVAVSRQGTVAGYGMVARESVQAGELLFVVPRAALLSQHTCSIGGLLERERVALQSQSGWVPLLLALLHELQAPASRWRPYFALWPELGRLEHPMFWPEEERRCLLQGTGVPEAVEKDLANIRSEYQSIVLPFMEAHPDLFSLRVRSLELYHQLVALVMAYSFQEPLEEEEDEKEPNSPVMVPAADILNHLANHNANLEYSANCLRMVATQPIPKGHEIFNTYGQMANWQLIHMYGFVEPYPDNTDDTADIQMVTVREAALQGTKTEAERHLVYERWDFLCKLEMVGEEGAFVIGREEVLTEEELTTTLKVLCMPAEEFRELKDQDGGGDDKREEGSLTITNIPKLKASWRQLLQNSVLLTLQTYATDLKTDQGLLSNKEVYAKLSWREQQALQVRYGQKMILHQLLELTS

binding result [2]: binds
B2: His E2F1 (natural protein)
chain: not shown
